B1: Wild-type E. coli GroES, 15N-labeled form (native heptamer) (natural protein)
chain: MNIRPLHDRVIVKRKEVETKSAGGIVLTGSAAAKSTRGEVLAVGNGRILENGEVKPLDVKVGDIVIFNDGYGVKSEKIDNEEVLIMSESDILAIVEA
modifications: uniformly 15N-labeled
notes: GroES co-chaperonin of Escherichia coli, wild type; concentrations are of the heptamer; also called 15N-labeled GroES; P (protein); source: E. coli BL21(DE3), expression plasmid pETESwild, purified as described previously
B2: single-ring mutant (SR1) of GroEL (R452E, E461A, S463A and V464A) (natural protein, E. coli, UniProt P0A6F5 1-548, looked up)
chain: MAAKDVKFGNDARVKMLRGVNVLADAVKVTLGPKGRNVVLDKSFGAPTITKDGVSVAREIELEDKFENMGAQMVKEVASKANDAAGDGTTTATVLAQAIITEGLKAVAAGMNPMDLKRGIDKAVTAAVEELKALSVPCSDSKAIAQVGTISANSDETVGKLIAEAMDKVGKEGVITVEDGTGLQDELDVVEGMQFDRGYLSPYFINKPETGAVELESPFILLADKKISNIREMLPVLEAVAKAGKPLLIIAEDVEGEALATLVVNTMRGIVKVAAVKAPGFGDRRKAMLQDIATLTGGTVISEEIGMELEKATLEDLGQAKRVVINKDTTTIIDGVGEEAAIQGRVAQIRQQIEEATSDYDREKLQERVAKLAGGVAVIKVGAATEVEMKEKKARVEDALHATRAAVEEGVVAGGGVALIRVASKLADLRGQNEDQNVGIKVALRAMEAPLEQIVLNCGEAPAAVANTVKGGDGNYGYNAATEEYGNMIDMGILDPTKVTRSALQYAASVAGLMITTECMVTDLPKNDAADLGAAGGMGGMGGMGGMM
notes: GroEL chaperonin of Escherichia coli with four mutations at the contact sites between the two rings, forming a single heptameric ring; Non-labeled; heptameric single ring; concentrations are of the heptamer; The PDB entries hold the wild-type double-ring parent; also called L (ligand); heptameric SR1; source: expression plasmid constructed from pEL-WT; expressed and purified as described …

Legend:
Details in all cases: both partners purified
[1] = target: B2; assay: NMR titration; 1H-15N HSQC of 21.4 uM 15N-labeled GroES with 0-42 uM SR1 (separate samples); 25°C; 3 mM ATP, 20 mM Tris-HCl, 100 mM KCl, 10 mM MgCl2, pH 7.5, 10% D2O; fit to single-step 1:1 binding (Eq 6)
[2] = target: B2; assay: NMR titration; 1H-15N HSQC of 21.4 uM 15N-labeled GroES with 0-42 uM SR1 (separate samples); 25°C; 3.0 mM ADP, 20 mM Tris-HCl, 100 mM KCl, 10 mM MgCl2, pH 7.5, 10% D2O; fit to single-step 1:1 binding (Eq 6)
[3] = target: B2; assay: NMR titration; 1H-15N HSQC of 21.4 uM 15N-labeled GroES with 0-42 uM SR1 (separate samples); 30°C; 3.0 mM ADP, 20 mM Tris-HCl, 100 mM KCl, 10 mM MgCl2, pH 7.5, 10% D2O; fit to single-step 1:1 binding (Eq 6)
[4] = target: B2; assay: NMR titration; 1H-15N HSQC of 21.4 uM 15N-labeled GroES with 0-42 uM SR1 (separate samples); 20°C; 3.0 mM ADP, 20 mM Tris-HCl, 100 mM KCl, 10 mM MgCl2, pH 7.5, 10% D2O; fit to single-step 1:1 binding (Eq 6)
[5] = target: B1; assay: NMR titration; van't Hoff plot of the Kb values from the NMR titrations at 20, 25 and 30°C; 3.0 mM ADP, 100 mM KCl, 10 mM MgCl2, pH 7.5

| Ka [1] [M⁻¹] | Ka [2] [M⁻¹] | Ka [3] [M⁻¹] | Ka [4] [M⁻¹] | dH [5] [kcal/mol] | Binder |
| --- | --- | --- | --- | --- | --- |
| 2.35e+06 | 189000 | 223000 | 141000 |  | B1 |
|  |  |  |  | 8.39 ± 1.15 | B2 |

From PMC5653362, “Formation of the chaperonin complex studied by 2D NMR spectroscopy” (PLoS ONE, 2017)
